Measured values as given in patent US20220185894A1 (F STAR THERAPEUTICS, published 2022).

T1: mouse LAG-3 expressed on cells (mouse, UniProt Q61790 24-521)
T1 construct: also called mLAG-3; murine LAG-3 HEK
T1 sequence: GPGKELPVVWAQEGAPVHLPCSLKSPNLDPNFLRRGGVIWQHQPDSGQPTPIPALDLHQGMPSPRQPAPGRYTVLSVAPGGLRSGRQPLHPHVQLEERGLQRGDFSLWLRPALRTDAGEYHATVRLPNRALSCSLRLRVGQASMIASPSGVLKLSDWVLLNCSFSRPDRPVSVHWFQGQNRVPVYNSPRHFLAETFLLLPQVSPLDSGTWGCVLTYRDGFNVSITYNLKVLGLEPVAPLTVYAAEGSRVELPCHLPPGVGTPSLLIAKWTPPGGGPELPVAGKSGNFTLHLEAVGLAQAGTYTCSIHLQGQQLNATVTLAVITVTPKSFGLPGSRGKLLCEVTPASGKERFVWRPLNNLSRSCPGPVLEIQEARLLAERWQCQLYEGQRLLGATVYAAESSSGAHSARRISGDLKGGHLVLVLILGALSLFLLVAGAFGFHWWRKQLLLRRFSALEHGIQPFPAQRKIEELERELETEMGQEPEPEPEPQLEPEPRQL

T2: human FcγRIIa (R&D Systems, 1330-CD) (human, UniProt P12318 36-218, limits assumed)
T2 construct: Bought recombinant protein
T2 sequence (looked up): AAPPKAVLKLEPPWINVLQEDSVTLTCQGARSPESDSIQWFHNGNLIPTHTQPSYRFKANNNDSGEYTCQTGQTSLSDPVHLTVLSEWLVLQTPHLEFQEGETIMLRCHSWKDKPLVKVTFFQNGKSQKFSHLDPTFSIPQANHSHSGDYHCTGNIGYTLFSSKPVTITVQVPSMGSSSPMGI

T3: human FcγRIIb/c (R&D Systems, 1875-CD) (human, UniProt P31994 46-217)
T3 construct: Bought recombinant protein
T3 sequence (looked up): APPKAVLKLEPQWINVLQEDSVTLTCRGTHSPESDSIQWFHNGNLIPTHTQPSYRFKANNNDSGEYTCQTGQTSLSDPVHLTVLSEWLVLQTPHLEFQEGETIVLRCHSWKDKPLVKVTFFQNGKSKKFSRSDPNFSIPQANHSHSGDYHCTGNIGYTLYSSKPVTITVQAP


Key:
[1] = molecular target: T1, mouse LAG-3 expressed on cells; experiment: flow cytometry on HEK cells expressing murine LAG-3
Protocol: The affinity of the mAb² (all containing the LALA mutations) binding to cell expressed murine LAG-3 or murine PD-L1 was determined using flow cytometry. HEK cells expressing murine LAG-3 or murine PD-L1 grown in DMEM (Life Technologies, 61965-026) containing 10% FBS (Life Technologies, 10270-1-6), 100 μg/ml Hygromycin B (Melford Laboratories Ltd, Z2475), 15 μg/ml Blasticidin (Melford Laboratories Ltd, B1105) and 1 μg/ml Doxycyclin (Sigma, D9891) were detached from tissue culture flasks using cell dissociation buffer (Life Technologies, 13151-014) and seeded in V-bottom 96-well plates (Costar, 3897) at 2×10⁵ cells/well. The plates were centrifuged at 1500 rpm for 3 min at 4° C. to pellet the cells. A dilution series of the mAb² (or control mAb) were incubated with the cells in a 60 μl volume for 1 h at 4° C. The plates were washed and secondary antibody (Anti-human Fc-488, Jackson ImmunoResearch, 109-546-098 for mAb² or Anti-Rat IgG (H+L), Alexa Fluor 488, ThermoFisher, A-11006 for anti-LAG-3 control, C9B7W) was diluted 1:1000 in PBS and 50 μl was added to the cells for 30 min at 4° C. (plates were kept in the dark). The plates were washed then cells were resuspended in 50 μl FACS Cell Fix (BD Bioscience, 340181) for 15 minutes, then washed and resuspended in 100 μl PBS containing 1 μg/ml DAPI (Biotium, 40043). The plates were read using Canto II flow cytometer (BD Bioscience). Dead cells were excluded and the fluorescence in the FITC channel (488 nm/530/30) was measured. The data was fit using log (agonist) vs response in GraphPad Prism Software. The plates were read on a BD FACSCanto II cytometer (BD Biosciences) and the data analysed using FlowJo.

[2] = molecular target: T2, human FcγRIIa (R&D Systems, 1330-CD); experiment: SPR, Biacore T200; FcγR immobilised, 500 µg/ml injected
Protocol: (§1) The introduction of the LALA mutation in the CH2 domain of human IgG1 is known to reduce Fc γ receptor binding (Bruhns, P., et al. (2009); and Xu, D. et al. (2000)). […] The human FcγR binding assay was performed on a Biacore T200 instrument (GE Healthcare) using the Fcabs in the mock mAb² format. […] For each immobilized chip a flow cell was left blank for background subtraction. FcγR were immobilized using a concentration of 5 μg/ml in sodium acetate pH5 (ForteBio, 18-1069) and injected at a flow rate of 10 μl/min in 15 second cycles until the required immobilization level was reached.
(§2) The flow cells were regenerated by injecting 10 mM sodium hydroxide (VWR, 28244.262) at a flow rate of 100 μl/min for 30 seconds. The data analysis was performed with BiaEvaluation software version 3.2 RC1 by double referencing against the blank flow cell (without immobilized FcγR) and subtracting a buffer cycle from test mAb².

[3] = molecular target: T3, human FcγRIIb/c (R&D Systems, 1875-CD); experiment: as above
Protocol: as §1, §2

[4] = molecular target: T4, human FcγRI (R&D Systems, 1257-FC) (human, UniProt P12314 16-288); experiment: SPR, Biacore T200; FcγR immobilised, 200 µg/ml injected
T4 construct: Bought recombinant protein
T4 sequence (P12314 16-288 limits assumed): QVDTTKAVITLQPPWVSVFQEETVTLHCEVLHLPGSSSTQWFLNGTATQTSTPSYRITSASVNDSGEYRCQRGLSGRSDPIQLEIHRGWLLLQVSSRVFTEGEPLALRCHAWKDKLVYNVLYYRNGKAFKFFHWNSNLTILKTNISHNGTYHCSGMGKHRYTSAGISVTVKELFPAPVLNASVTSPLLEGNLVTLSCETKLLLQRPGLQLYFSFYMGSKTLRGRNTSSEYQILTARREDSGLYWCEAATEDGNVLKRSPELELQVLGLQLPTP
Protocol: as §1, §2

[5] = molecular target: T5, human FcγRIIIa (R&D Systems, 4325-FC) (human, UniProt P08637 17-208); experiment: as above
T5 construct: Bought recombinant protein
T5 sequence (P08637 17-208 limits assumed): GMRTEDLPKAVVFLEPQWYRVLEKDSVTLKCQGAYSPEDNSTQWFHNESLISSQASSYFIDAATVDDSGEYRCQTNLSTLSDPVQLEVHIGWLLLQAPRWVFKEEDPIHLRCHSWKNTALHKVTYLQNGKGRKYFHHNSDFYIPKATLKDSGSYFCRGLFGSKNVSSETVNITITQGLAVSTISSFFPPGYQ
Protocol: as §1, §2

| EC50 [1] | binding response at end of association (RU) [2] | binding response at end of association (RU) [3] | binding response at end of association (RU) [4] | binding response at end of association (RU) [5] | Binder |
| --- | --- | --- | --- | --- | --- |
| 2.38 nM |  |  |  |  | anti-mouse LAG-3/FITC mAb2 FS18-7-108-35/4420 comprising LALA mutation (bispecific antibody, human IgG1, kappa, L234A L235A, also called FS18-35/4420) heavy: EVKLDETGGGLVQPGRPMKLSCVASGFTFSDYWMNWVRQSPEKGLEWVAQIRNKPYNYETYYSDSVKGRFTISRDDSKSSVYLQMNNLRVEDMGIYYCTGSYYGMDYWGQGTSVTVSSASTKGPSVFPLAPSSKSTSGGTAALGCLVKDYFPEPVTVSWNSGALTSGVHTFPAVLQSSGLYSLSSVVTVPSSSLGTQTYICNVNHKPSNTKVDKKVEPKSCDKTHTCPPCPAPEAAGGPSVFLFPPKPKDTLMISRTPEVTCVVVDVSHEDPEVKFNWYVDGVEVHNAKTKPREEQYNSTYRVVSVLTVLHQDWLNGKEYKCKVSNKALPAPIEKTISKAKGQPREPQVYTLPPSWDEPWGEDVSLTCLVKGFYPSDISVEWESNGQPENNYKTTPPVLDSDGSFFLYSKLTVPFERWMWPDEFSCSVMHEALHNHYTQKSLSLSPG light: DVVMTQTPLSLPVSLGDQASISCRSSQSLVHSNGNTYLRWYLQKPGQSPKVLIYKVSNRFSGVPDRFSGSGSGTDFTLKISRVEAEDLGVYFCSQSTHVPWTFGGGTKLEIKRTVAAPSVFIFPPSDEQLKSGTASVVCLLNNFYPREAKVQWKVDNALQSGNSQESVTEQDSKDSTYSLSSTLTLSKADYEKHKVYACEVTHQGLSSPVTKSFNRGEC |
|  | -12.7 RU | -9.6 RU | 2 RU | 8 RU | anti-FITC mAb 4420 comprising LALA mutation (antibody, human IgG1, kappa, L234A L235A, also called mock mAb LALA; 4420 LALA) heavy: not shown light: DVVMTQTPLSLPVSLGDQASISCRSSQSLVHSNGNTYLRWYLQKPGQSPKVLIYKVSNRFSGVPDRFSGSGSGTDFTLKISRVEAEDLGVYFCSQSTHVPWTFGGGTKLEIKRTVAAPSVFIFPPSDEQLKSGTASVVCLLNNFYPREAKVQWKVDNALQSGNSQESVTEQDSKDSTYSLSSTLTLSKADYEKHKVYACEVTHQGLSSPVTKSFNRGEC |

More lines, now with the values behind:

| Binder | EC50 [1] | binding response at end of association (RU) [2] | binding response at end of association (RU) [3] | binding response at end of association (RU) [4] | binding response at end of association (RU) [5] |
| --- | --- | --- | --- | --- | --- |
| anti-mouse LAG-3/FITC mAb2 FS18-7-108-29/4420 comprising LALA mutation (bispecific antibody, human IgG1, kappa, L234A L235A, also called FS18-29/4420) heavy: EVKLDETGGGLVQPGRPMKLSCVASGFTFSDYWMNWVRQSPEKGLEWVAQIRNKPYNYETYYSDSVKGRFTISRDDSKSSVYLQMNNLRVEDMGIYYCTGSYYGMDYWGQGTSVTVSSASTKGPSVFPLAPSSKSTSGGTAALGCLVKDYFPEPVTVSWNSGALTSGVHTFPAVLQSSGLYSLSSVVTVPSSSLGTQTYICNVNHKPSNTKVDKKVEPKSCDKTHTCPPCPAPEAAGGPSVFLFPPKPKDTLMISRTPEVTCVVVDVSHEDPEVKFNWYVDGVEVHNAKTKPREEQYNSTYRVVSVLTVLHQDWLNGKEYKCKVSNKALPAPIEKTISKAKGQPREPQVYTLPPSWDEPWGEDVSLTCLVKGFYPSDIVVEWESNGQPENNYKTTPPVLDSDGSFFLYSKLTVPFERWMWPDEFSCSVMHEALHNHYTQKSLSLSPG light: DVVMTQTPLSLPVSLGDQASISCRSSQSLVHSNGNTYLRWYLQKPGQSPKVLIYKVSNRFSGVPDRFSGSGSGTDFTLKISRVEAEDLGVYFCSQSTHVPWTFGGGTKLEIKRTVAAPSVFIFPPSDEQLKSGTASVVCLLNNFYPREAKVQWKVDNALQSGNSQESVTEQDSKDSTYSLSSTLTLSKADYEKHKVYACEVTHQGLSSPVTKSFNRGEC | 2.29 nM |  |  |  |  |
| anti-FITC mAb 4420 without LALA mutation (wild-type IgG1) (antibody, also called mock mAb IgG1; 4420 mAb IgG1) heavy: not shown light: DVVMTQTPLSLPVSLGDQASISCRSSQSLVHSNGNTYLRWYLQKPGQSPKVLIYKVSNRFSGVPDRFSGSGSGTDFTLKISRVEAEDLGVYFCSQSTHVPWTFGGGTKLEIKRTVAAPSVFIFPPSDEQLKSGTASVVCLLNNFYPREAKVQWKVDNALQSGNSQESVTEQDSKDSTYSLSSTLTLSKADYEKHKVYACEVTHQGLSSPVTKSFNRGEC |  | 13 RU | 17.7 RU | 26 RU | 44 RU |
